Source: the supplement of paper PMC7877785
± gives the uncertainty stated by the source.

Test: self-splicing fitness, log relative to wild type (ln ratio); higher = more splicing; Tetrahymena group I intron in knt gene, E. coli kanamycin selection, DiMSum; sequences stand for … in CUCUCU…GGAGGGAAAAGUUAUCAGGCAUGCACCUGGUAGCUAGUCUUUAAACCAAUAGAUUGCAUCGGUUUAAAAGGCAAGACCGUCAAAUUGCGGGAAAGGGGUCAACAGCCGUUCAGUACCAAGUCUCAGGGGAAACUUUGAGAUGGCCUUGCAAAGGGUAUGGUAAUAAGCUGACGGACAUGGUCCUAACCACGCAGCCAAGUCCUAAGUCAACAGAUCUUCUGUUGAUAUGGAUGCAGUUCACAGACUAAAUGUCGGUCGGGGAAGAUGUAUUCUUCUCAUAAGAUAUAGUCGGACCUCUCCUUAAUGGGAGCUAGCGGAUGAAGUGAUGCAACACUGGAGCCGCUGGGAACUAAUUUGUAUGCGAAAGUAUAUUGAUUAGUUUUGGAGUACUCGUGGUCG
Outline: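 Fitness was computed with DiMSum as the error-weighted combination of replicate fold changes, kanamycin versus none, each normalised to wild type. The library randomised all eight intron nucleotides of the P1ex region, with the intron placed in the knt kanamycin-resistance gene on pET-22b(+) in E. coli BL21(DE3). Six replicate transformations were grown overnight at 37°C or 30°C on LB agar with or without 25 μg/mL kanamycin, plus 100 μg/mL carbenicillin, 50 μM IPTG and 0.2% rhamnose. Pooled colonies were amplicon-sequenced on an Illumina HiSeq 2500.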

CCUGAGCAAUAUUACGUUAG
self-splicing fitness (ln) (30 °C): -3.86 ± 0.17 | self-splicing fitness (ln) (37 °C): -2.29 ± 0.12

CCUUAGCAAUAUUACGAAAG
self-splicing fitness (ln) (30 °C): -1.96 ± 0.11 | self-splicing fitness (ln) (37 °C): -1.45 ± 0.089

CCUUAGCAAUAUUACGAGAG
self-splicing fitness (ln) (30 °C): -2.05 ± 0.11 | self-splicing fitness (ln) (37 °C): -1.42 ± 0.1

CCUUAGCAAUAUUACGAGGG
self-splicing fitness (ln) (30 °C): -3.54 ± 0.24 | self-splicing fitness (ln) (37 °C): -1.39 ± 0.21

CCUUAGCAAUAUUACGAGUA
self-splicing fitness (ln) (30 °C): -2.81 ± 0.29 | self-splicing fitness (ln) (37 °C): -2.42 ± 0.26

CCUUAGCAAUAUUACGAUGG
self-splicing fitness (ln) (30 °C): -2.24 ± 0.13 | self-splicing fitness (ln) (37 °C): -2.26 ± 0.16

CCUUAGCAAUAUUACGCACG
self-splicing fitness (ln) (30 °C): -2.02 ± 0.35

CCUUAGCAAUAUUACGCAGA
self-splicing fitness (ln) (30 °C): -3.11 ± 0.36 | self-splicing fitness (ln) (37 °C): -2.72 ± 0.3

CCUUAGCAAUAUUACGCGCC
self-splicing fitness (ln) (30 °C): -2.8 ± 0.4

CCUUAGCAAUAUUACGGCAU
self-splicing fitness (ln) (30 °C): -3.41 ± 0.19 | self-splicing fitness (ln) (37 °C): -2.88 ± 0.32

CCUUAGCAAUAUUACGUAAU
self-splicing fitness (ln) (30 °C): -3.24 ± 0.29 | self-splicing fitness (ln) (37 °C): -1.81 ± 0.16

CCUUAGCAAUAUUACGUCAG
self-splicing fitness (ln) (30 °C): -3.79 ± 0.35 | self-splicing fitness (ln) (37 °C): -2.74 ± 0.31

CCUUAGCAAUAUUACGUCUG
self-splicing fitness (ln) (30 °C): -2.99 ± 0.1 | self-splicing fitness (ln) (37 °C): -1.48 ± 0.096

CCUUAGCAAUAUUACGUGAG
self-splicing fitness (ln) (30 °C): -1.35 ± 0.068 | self-splicing fitness (ln) (37 °C): 0.0439 ± 0.088

CCUUAGCAAUAUUACGUGAU
self-splicing fitness (ln) (30 °C): -3.66 ± 0.2 | self-splicing fitness (ln) (37 °C): -2 ± 0.24

CCUUAGCAAUAUUACGUUAC
self-splicing fitness (ln) (30 °C): -3.65 ± 0.35 | self-splicing fitness (ln) (37 °C): -2.91 ± 0.29

CGAAAGCAAUAUUACGAUAA
self-splicing fitness (ln) (30 °C): -2.44 ± 0.17 | self-splicing fitness (ln) (37 °C): -0.695 ± 0.12

CGAAAGCAAUAUUACGAUGC
self-splicing fitness (ln) (30 °C): -2.67 ± 0.39 | self-splicing fitness (ln) (37 °C): -1.35 ± 0.27

CGAAAGCAAUAUUACGAUUU
self-splicing fitness (ln) (30 °C): -2.12 ± 0.09 | self-splicing fitness (ln) (37 °C): -0.815 ± 0.099

CGAAAGCAAUAUUACGCCCG
self-splicing fitness (ln) (30 °C): -1.9 ± 0.18 | self-splicing fitness (ln) (37 °C): -0.623 ± 0.21

CGAAAGCAAUAUUACGCCGA
self-splicing fitness (ln) (30 °C): -1.99 ± 0.24 | self-splicing fitness (ln) (37 °C): -0.323 ± 0.15

CGAAAGCAAUAUUACGCUAG
self-splicing fitness (ln) (30 °C): -2.3 ± 0.12 | self-splicing fitness (ln) (37 °C): -1.57 ± 0.12

CGAAAGCAAUAUUACGCUUG
self-splicing fitness (ln) (30 °C): -2.51 ± 0.087 | self-splicing fitness (ln) (37 °C): -2.15 ± 0.091

CGAAAGCAAUAUUACGGAAG
self-splicing fitness (ln) (30 °C): -0.208 ± 0.097 | self-splicing fitness (ln) (37 °C): -0.546 ± 0.11

CGAAAGCAAUAUUACGGACC
self-splicing fitness (ln) (30 °C): -0.938 ± 0.11 | self-splicing fitness (ln) (37 °C): 0.398 ± 0.13

CGAAAGCAAUAUUACGGAGU
self-splicing fitness (ln) (30 °C): -3.55 ± 0.19 | self-splicing fitness (ln) (37 °C): -2.42 ± 0.17

CGAAAGCAAUAUUACGGCAC
self-splicing fitness (ln) (30 °C): -2.6 ± 0.15 | self-splicing fitness (ln) (37 °C): 0.387 ± 0.21

CGAAAGCAAUAUUACGGCGA
self-splicing fitness (ln) (30 °C): -0.763 ± 0.11 | self-splicing fitness (ln) (37 °C): -0.486 ± 0.11

CGAAAGCAAUAUUACGGCUU
self-splicing fitness (ln) (30 °C): -4.2 ± 0.22 | self-splicing fitness (ln) (37 °C): -2.79 ± 0.3

CGAAAGCAAUAUUACGGGGG
self-splicing fitness (ln) (30 °C): -2.85 ± 0.14 | self-splicing fitness (ln) (37 °C): -1.96 ± 0.13

CGAAAGCAAUAUUACGGGUU
self-splicing fitness (ln) (30 °C): -3.58 ± 0.21 | self-splicing fitness (ln) (37 °C): -2.74 ± 0.19

CGAAAGCAAUAUUACGGUAC
self-splicing fitness (ln) (30 °C): -2.51 ± 0.29

CGAAAGCAAUAUUACGUACU
self-splicing fitness (ln) (30 °C): -0.756 ± 0.078 | self-splicing fitness (ln) (37 °C): 0.23 ± 0.098

CGAAAGCAAUAUUACGUCCG
self-splicing fitness (ln) (30 °C): -1.22 ± 0.088 | self-splicing fitness (ln) (37 °C): -0.637 ± 0.12

CGAAAGCAAUAUUACGUCUU
self-splicing fitness (ln) (30 °C): -2.8 ± 0.13 | self-splicing fitness (ln) (37 °C): -1.87 ± 0.16

CGAAAGCAAUAUUACGUGAU
self-splicing fitness (ln) (30 °C): -2.36 ± 0.11 | self-splicing fitness (ln) (37 °C): -1.95 ± 0.14

CGAAAGCAAUAUUACGUGGA
self-splicing fitness (ln) (30 °C): -3.24 ± 0.13 | self-splicing fitness (ln) (37 °C): -1.66 ± 0.096

CGAAAGCAAUAUUACGUUAU
self-splicing fitness (ln) (30 °C): -3.68 ± 0.31 | self-splicing fitness (ln) (37 °C): -3.5 ± 0.29

CGACAGCAAUAUUACGAACU
self-splicing fitness (ln) (30 °C): -1.16 ± 0.13 | self-splicing fitness (ln) (37 °C): -0.845 ± 0.15

CGACAGCAAUAUUACGAGUA
self-splicing fitness (ln) (30 °C): -3.58 ± 0.18 | self-splicing fitness (ln) (37 °C): -1.52 ± 0.12

CGACAGCAAUAUUACGAUAU
self-splicing fitness (ln) (30 °C): -2.96 ± 0.14 | self-splicing fitness (ln) (37 °C): -2.84 ± 0.12

CGACAGCAAUAUUACGCAAG
self-splicing fitness (ln) (30 °C): -1.28 ± 0.081 | self-splicing fitness (ln) (37 °C): -0.83 ± 0.097

CGACAGCAAUAUUACGCAGU
self-splicing fitness (ln) (30 °C): -3.75 ± 0.22 | self-splicing fitness (ln) (37 °C): -2.05 ± 0.23

CGACAGCAAUAUUACGCCCU
self-splicing fitness (ln) (30 °C): -1.46 ± 0.1 | self-splicing fitness (ln) (37 °C): -0.191 ± 0.11

CGACAGCAAUAUUACGCCGU
self-splicing fitness (ln) (30 °C): -2.62 ± 0.35 | self-splicing fitness (ln) (37 °C): -1.55 ± 0.33

CGACAGCAAUAUUACGCUAU
self-splicing fitness (ln) (30 °C): -3.71 ± 0.23 | self-splicing fitness (ln) (37 °C): -2.04 ± 0.14

CGACAGCAAUAUUACGCUUA
self-splicing fitness (ln) (30 °C): -2.2 ± 0.14 | self-splicing fitness (ln) (37 °C): -1.78 ± 0.12

CGACAGCAAUAUUACGCUUC
self-splicing fitness (ln) (37 °C): -3.09 ± 0.43

CGACAGCAAUAUUACGCUUG
self-splicing fitness (ln) (30 °C): -1.8 ± 0.098 | self-splicing fitness (ln) (37 °C): -1.22 ± 0.12
